Reference: patent publication US20240261333A1, “NOVEL TARGETS FOR ENHANCING ANTI-TUMOR IMMUNITY” (THE BROAD INSTITUTE, INC., priority 2021, published 2024)

T1: B3GNT2 (Homo sapiens, UniProt Q9NY97)
T1 construct: The respective ORFs of candidate genes [CD274 (NM_014143), MCL1 (NM_021960), JUNB (NM_002229), and B3GNT2 (NM_006577)] were synthesized; expressed in transfected cells; host or cells: A375 melanoma cells (lentiviral ORF overexpression)
T1 sequence (Q9NY97 1-397): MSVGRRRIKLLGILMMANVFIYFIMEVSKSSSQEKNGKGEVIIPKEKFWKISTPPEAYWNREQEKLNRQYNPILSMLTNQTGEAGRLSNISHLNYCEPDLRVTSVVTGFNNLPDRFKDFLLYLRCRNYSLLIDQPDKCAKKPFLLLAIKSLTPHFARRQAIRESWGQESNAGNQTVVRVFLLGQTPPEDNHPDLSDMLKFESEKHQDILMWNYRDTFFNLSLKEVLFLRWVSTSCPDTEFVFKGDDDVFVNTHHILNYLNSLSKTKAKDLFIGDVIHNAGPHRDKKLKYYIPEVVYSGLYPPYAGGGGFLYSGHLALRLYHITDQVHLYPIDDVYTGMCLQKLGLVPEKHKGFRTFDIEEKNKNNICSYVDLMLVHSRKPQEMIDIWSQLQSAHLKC


Molecular target: T1, B3GNT2
Test: Co-IP of FLAG-tagged B3GNT2 followed by mass spectrometry
Type: cell-based
Parameters: C-term IgG / C-term flag: unit not given here
Settings: mass spectrometry count, unit not given; for C-term flag / N-term FLAG: Co-IP with FLAG antibody; for C-term flag / C-term IgG: C-terminally FLAG-tagged B3GNT2; for N-term FLAG / N-term IgG: N-terminally FLAG-tagged B3GNT2; for C-term IgG / N-term IgG: Co-IP with IgG control antibody
Method in brief: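 Co-purifying proteins were identified by fractionated nano-LC–MS/MS on an Orbitrap Elite, run data-dependent. Beforehand, lysates in 1% Triton X-100/HEPES buffer were incubated overnight at 4° C with anti-FLAG or […] and pulled down on Protein A/G magnetic beads for 4 h. Duplicate biological replicates.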

C-term flag	N-term FLAG	C-term IgG	N-term IgG	Molecule
9	11	0	0	ERLIN1 (protein) MNMTQARVLVAAVVGLVAVLLYASIHKIEEGHLAVYYRGGALLTSPSGPGYHIMLPFITTFRSVQTTLQTDEVKNVPCGTSGGVMIYIDRIEVVNMLAPYAVFDIVRNYTADYDKTLIFNKIHHELNQFCSAHTLQEVYIELFDQIDENLKQALQKDLNLMAPGLTIQAVRVTKPKIPEAIRRNFELMEAEKTKLLIAAQKQKVVEKEAETERKKAVIEAEKIAQVAKIRFQQKVMEKETEKRISEIEDAAFLAREKAKADAEYYAAHKYATSNKHKLTPEYLELKKYQAIASNSKIYFGSNIPNMFVDSSCALKYSDIRTGRESSLPSKEALEPSGENVIQNKESTG
3	4	2	0	PIP (protein) QDNTRKIIIKNFDIPKSVRPNDEVTAVLAVQTELKECMVVKTYLISSIPLQGAFNYKYTACLCDDNPKTFYWDFYTNRTVQIAAVVDVIRELGICPDDAAVIPIKNNRFYTIEILKVE
0	2	0	0	SRSF7 (protein) MSRYGRYGGETKVYVGNLGTGAGKGELERAFSYYGPLRTVWIARNPPGFAFVEFEDPRDAEDAVRGLDGKVICGSRVRVELSTGMPRRSRFDRPPARRPFDPNDRCYECGEKGHYAYDCHRYSRRRRSRSRSRSHSRSRGRRYSRSRSRSRGRRSRSASPRRSRSISLRRSRSASLRRSRSGSIKGSRYFQSPSRSRSRSRSISRPRSSRSKSRSPSPKRSRSPSGSPRRSASPERMD
9	8	4	3	CASP14 (protein) MSNPRSLEEEKYDMSGARLALILCVTKAREGSEEDLDALEHMFRQLRFESTMKRDPTAEQFQEELEKFQQAIDSREDPVSCAFVVLMAHGREGFLKGEDGEMVKLENLFEALNNKNCQALRAKPKVYIIQACRGEQRDPGETVGGDEIVMVIKDSPQTIPTYTDALHVYSTVEGYIAYRHDQKGSCFIQTLVDVFTKRKGHILELLTEVTRRMAEAELVQEGKARKTNPEIQSTLRKRLYLQ
14	9	0	0	SLC25A4 (protein) GDHAWSFLKDFLAGGVAAAVSKTAVAPIERVKLLLQVQHASKQISAEKQYKGIIDCVVRIPKEQGFLSFWRGNLANVIRYFPTQALNFAFKDKYKQLFLGGVDRHKQFWRYFAGNLASGGAAGATSLCFVYPLDFARTRLAADVGKGAAQREFHGLGDCIIKIFKSDGLRGLYQGFNVSVQGIIIYRAAYFGVYDTAKGMLPDPKNVHIFVSWMIAQSVTAVAGLVSYPFDTVRRRMMMQSGRKGADIMYTGTVDCWRKIAKDEGAKAFFKGAWSNVLRGMGGAFVLVLYDEIKKYV

The next lines start with the molecule.

Molecule	C-term flag	N-term FLAG	C-term IgG	N-term IgG
TGM3 (protein) AALGVQSINWQTAFNRQAHHTDKFSSQELILRRGQNFQVLMIMNKGLGSNERLEFIVSTGPYPSESAMTKAVFPLSNGSSGGWSAVLQASNGNTLTISISSPASAPIGRYTMALQIFSQGGISSVKLGTFILLFNPWLNVDSVFMGNHAEREEYVQEDAGIIFVGSTNRIGMIGWNFGQFEEDILSICLSILDRSLNFRRDAATDVASRNDPKYVGRVLSAMINSNDDNGVLAGNWSGTYTGGRDPRSWNGSVEILKNWKKSGFSPVRYGQCWVFAGTLNTALRSLGIPSRVITNFNSAHDTDRNLSVDVYYDPMGNPLDKGSDSVWNFHVWNEGWFVRSDLGPSYGGWQVLDATPQERSQGVFQCGPASVIGVREGDVQLNFDMPFIFAEVNADRITWLYDNTTGKQWKNSVNSHTIGRYISTKAVGSNARMDVTDKYKYPEGSDQERQVFQKALGKLKPNTPFAATSSMGLETEEQEPSIIGKLKVAGMLAVGKEVNLVLLLKNLSRDTKTVTVNMTAWTIIYNGTLVHEVWKDSATMSLDPEEEAEHPIKISYAQYEKYLKSDNMIRITAVCKVPDESEVVVERDIILDNPTLTLEVLNEARVRKPVNVQMLFSNPLDEPVRDCVLMVEGSGLLLGNLKIDVPTLGPKEGSRVRFDILPSRSGTKQLLADFSCNKFPAIKAMLSIDVAE	5	9	3	2
HSD17B12 (protein) MESALPAAGFLYWVGAGTVAYLALRISYSLFTALRVWGVGNEAGVGPGLGEWAVVTGSTDGIGKSYAEELAKHGMKVVLISRSKDKLDQVSSEIKEKFKVETRTIAVDFASEDIYDKIKTGLAGLEIGILVNNVGMSYEYPEYFLDVPDLDNVIKKMININILSVCKMTQLVLPGMVERSKGAILNISSGSGMLPVPLLTIYSATKTFVDFFSQCLHEEYRSKGVFVQSVLPYFVATKLAKIRKPTLDKPSPETFVKSAIKTVGLQSRTNGYLIHALMGSIISNLPSWIYLKIVMNMNKSTRAHYLKKTKKN	10	10	0	0
PRR4 (protein) QSTDNDVNYEDFTFTIPDVEDSSQRPDQGPQRPPPEGLLPRPPGDSGNQDDGPQQRPPKPGGHHRHPPPPPFQNQQRPPRRGHRQLSLPRFPSVSLQEASSFFQRDRPARHPQEQPLW	0	2	0	0
UQCRC2 (protein) SLKVAPKVKATAAPAGAPPQPQDLEFTKLPNGLVIASLENYSPVSRIGLFIKAGSRYEDFSNLGTTHLLRLTSSLTTKGASSFKITRGIEAVGGKLSVTATRENMAYTVECLRGDVDILMEFLLNVTTAPEFRRWEVADLQPQLKIDKAVAFQNPQTHVIENLHAAAYRNALANPLYCPDYRIGKVTSEELHYFVQNHFTSARMALIGLGVSHPVLKQVAEQFLNMRGGLGLSGAKANYRGGEIREQNGDSLVHAAFVAESAVAGSAEANAFSVLQHVLGAGPHVKRGSNTTSHLHQAVAKATQQPFDVSAFNASYSDSGLFGIYTISQATAAGDVIKAAYNQVKTIAQGNLSNTDVQAAKNKLKAGYLMSVESSECFLEEVGSQALVAGSYMPPSTVLQQIDSVANADIINAAKKFVSGQKSMAASGNLGHTPFVDEL	4	13	0	0
CANX (protein) HDGHDDDVIDIEDDLDDVIEEVEDSKPDTTAPPSSPKVTYKAPVPTGEVYFADSFDRGTLSGWILSKAKKDDTDDEIAKYDGKWEVEEMKESKLPGDKGLVLMSRAKHHAISAKLNKPFLFDTKPLIVQYEVNFQNGIECGGAYVKLLSKTPELNLDQFHDKTPYTIMFGPDKCGEDYKLHFIFRHKNPKTGIYEEKHAKRPDADLKTYFTDKKTHLYTLILNPDNSFEILVDQSVVNSGNLLNDMTPPVNPSREIEDPEDRKPEDWDERPKIPDPEAVKPDDWDEDAPAKIPDEEATKPEGWLDDEPEYVPDPDAEKPEDWDEDMDGEWEAPQIANPRCESAPGCGVWQRPVIDNPNYKGKWKPPMIDNPSYQGIWKPRKIPNPDFFEDLEPFRMTPFSAIGLELWSMTSDIFFDNFIICADRRIVDDWANDGWGLKKAADGAAEPGVVGQMIEAAEERPWLWVVYILTVALPVFLVILFCCSGKKQTSGMEYKKTDAPQPDVKEEEEEKEEEKDKGDEEEEGEEKLEEKQKSDAEEDGGTVSQEEEDRKPKAEEDEILNRSPRNRKPRRE	11	6	0	0
CKAP4 (protein) MPSAKQRGSKGGHGAASPSEKGAHPSGGADDVAKKPPPAPQQPPPPPAPHPQQHPQQHPQNQAHGKGGHRGGGGGGGKSSSSSSASAAAAAAAASSSASCSRRLGRALNFLFYLALVAAAAFSGWCVHHVLEEVQQVRRSHQDFSRQREELGQGLQGVEQKVQSLQATFGTFESILRSSQHKQDLTEKAVKQGESEVSRISEVLQKLQNEILKDLSDGIHVVKDARERDFTSLENTVEERLTELTKSINDNIAIFTEVQKRSQKEINDMKAKVASLEESEGNKQDLKALKEAVKEIQTSAKSREWDMEALRSTLQTMESDIYTEVRELVSLKQEQQAFKEAADTERLALQALTEKLLRSEESVSRLPEEIRRLEEELRQLKSDSHGPKEDGGFRHSEAFEALQQKSQGLDSRLQHVEDGVLSMQVASARQTESLESLLSKSQEHEQRLAALQGRLEGLGSSEADQDGLASTVRSLGETQLVLYGDVEELKRSVGELPSTVESLQKVQEQVHTLLSQDQAQAARLPPQDFLDRLSSLDNLKASVSQVEADLKMLRTAVDSLVAYSVKIETNENNLESAKGLLDDLRNDLDRLFVKVEKIHEKV	14	2	0	0
